Measurements reported in article PMC7515630, “Optogenetic activation of heterotrimeric G-proteins by LOV2GIVe, a rationally engineered modular protein” (eLife, 2020).

Target: T1, GST-LOV2GIV (L) (Avena sativa | , FMN chromophore. GST omitted. The exact sequence and junction are in Supplementary file 1, so limits are by convention: AsLOV2 404-546 and the UniProt GBA motif. The paper's GIV numbering is the displ)
T1 chain: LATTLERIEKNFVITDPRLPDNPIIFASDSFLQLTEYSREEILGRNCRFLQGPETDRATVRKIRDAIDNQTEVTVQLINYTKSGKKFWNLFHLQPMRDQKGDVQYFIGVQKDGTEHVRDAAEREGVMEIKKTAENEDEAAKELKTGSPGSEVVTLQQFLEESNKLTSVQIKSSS
Assay: pull-down; ~20 µg purified GST-fused construct on glutathione-agarose beads, 3 µg (~300 nM) purified His-tagged Gα; 4 hr at 4°C in 50 mM Tris-HCl pH 7.4, 100 mM NaCl, 0.4% NP-40, 10 mM MgCl2, 5 mM EDTA, 1 mM DTT, 30 µM GDP; immunoblot for His
Conditions: both partners purified

B1: His-Gαi3 (rat) (natural protein, UniProt P08753 1-354, looked up)
chain: MGCTLSAEDKAAVERSKMIDRNLREDGEKAAKEVKLLLLGAGESGKSTIVKQMKIIHEDGYSEDECKQYKVVVYSNTIQSIIAIIRAMGRLKIDFGEAARADDARQLFVLAGSAEEGVMTSELAGVIKRLWRDGGVQACFSRSREYQLNDSASYYLNDLDRISQTNYIPTQQDVLRTRVKTTGIVETHFTFKELYFKMFDVGGQRSERKKWIHCFEGVTAIIFCVALSDYDLVLAEDEEMNRMHESMKLFDSICNNKWFTDTSIILFLNKKDLFEEKIKRSPLTICYPEYTGSNTYEEAAAYIQCQFEDLNRRKDTKEVYTHFTCATDTKNVQFVFDAVTDVIIKNNLKECGLY
notes: rat Gαi3, G-protein alpha subunit i3; kept with GDP in the buffers; also called pET28b-Gαi3; source: E. coli BL21(DE3), purified (HisPur cobalt resin, desalting)
fold binding over the dark conformation, LOV2GIV (D): ~3 fold
